The test concerns the target T1, FLT3 as expressed on cells (NALM16 cells, FLT3+) (human, UniProt P36888 27-993).
T1 construct: whole, on cells; Endogenous FLT3 of a human leukemia cell line; also called Nalm16 cells expressing FLT3
T1 sequence (looked up): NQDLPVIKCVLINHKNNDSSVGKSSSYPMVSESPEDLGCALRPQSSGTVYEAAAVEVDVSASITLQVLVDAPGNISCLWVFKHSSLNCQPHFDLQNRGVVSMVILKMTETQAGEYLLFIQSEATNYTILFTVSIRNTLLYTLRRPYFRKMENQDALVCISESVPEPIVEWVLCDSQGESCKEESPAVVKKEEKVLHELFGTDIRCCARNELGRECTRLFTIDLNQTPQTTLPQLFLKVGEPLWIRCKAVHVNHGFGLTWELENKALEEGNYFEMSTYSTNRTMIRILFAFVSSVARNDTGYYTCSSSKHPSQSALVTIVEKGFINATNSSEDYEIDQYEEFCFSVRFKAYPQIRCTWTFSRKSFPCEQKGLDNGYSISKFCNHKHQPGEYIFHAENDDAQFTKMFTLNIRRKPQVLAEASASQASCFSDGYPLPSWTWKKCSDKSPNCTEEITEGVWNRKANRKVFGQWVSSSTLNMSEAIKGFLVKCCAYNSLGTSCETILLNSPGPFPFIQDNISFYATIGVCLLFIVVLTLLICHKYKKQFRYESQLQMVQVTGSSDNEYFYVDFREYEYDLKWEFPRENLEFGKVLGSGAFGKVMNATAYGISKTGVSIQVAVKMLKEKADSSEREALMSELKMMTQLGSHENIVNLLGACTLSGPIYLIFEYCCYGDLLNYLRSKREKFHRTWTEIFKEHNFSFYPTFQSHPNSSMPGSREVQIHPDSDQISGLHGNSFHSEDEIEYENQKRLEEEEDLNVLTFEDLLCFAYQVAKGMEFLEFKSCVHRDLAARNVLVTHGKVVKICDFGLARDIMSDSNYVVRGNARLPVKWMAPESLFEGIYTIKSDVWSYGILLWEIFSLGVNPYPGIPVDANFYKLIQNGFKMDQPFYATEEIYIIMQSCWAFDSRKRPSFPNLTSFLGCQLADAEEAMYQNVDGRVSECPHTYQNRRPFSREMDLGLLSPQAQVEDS
In words: flow cytometry on FLT3+ NALM16 cells; value told of the FLT3 binding part shared by V6 to V9. (In general: Flow cytometry measures light scatter and fluorescence of single cells or particles in a stream.)

The term EC50 denotes the midpoint of the concentration-response curve.

B1: V6-V9 (CC-2 variant, parental 4G8 FLT3 domain with UCHT1 CD3 scFv variant V9) (bispecific antibody, human IgG1, kappa)
heavy: QVQLQQPGAELVKPGASLKLSCKSSGYTFTSYWMHWVRQRPGHGLEWIGEIDPSDSYKDYNQKFKDKATLTVDRSSNTAYMHLSSLTSDDSAVYYCARAITTTPFDFWGQGTTLTVSSASTKGPSVFPLAPSSKSTSGGTAALGCLVKDYFPEPVTVSWNSGALTSGVHTFPAVLQSSGLYSLSSVVTVPSSSLGTQTYICNVNHKPSNTKVDKKVEPKSCDKTHTCPPCPAPPVAGPSVFLFPPKPKDTLMISRTPEVTCVVVGVSHEDPEVKFNWYVDGVEVHNAKTKPREEQYNSTYRVVSVLTVLHQDWLNGKEYKCKVSNKQLPSPIEKTISKAKGQPREPQVYTLPPSRDELTKNQVSLTCLVKGFYPSDIAVEWESNGQPENNYKTTPPVLDSDGSFFLYSKLTVDKSRWQQGNVFSCSVMHEALHNHYTQKSLSLSPGKSGEVQLVESGGGLVQPGGSLRLSCAASGYSFTGYTMNWVRQAPGKGLEWVALINPYKGVSTYNQKFKDRFTISVDKSKNTAYLQMNSLRAEDTAVYYCARSGYYGDSDWYFDVWGQGTLVTVSSGGGGSGGGGSGGGGSDIQMTQSPSSLSASVGDRVTITCRASQDIRNYLNWYQQKPGKAPKLLIYYTSRLESGVPSRFSGSGSGTDYTLTISSLQPEDFATYYCQQGNTLPWTFGQGTKVEIK
light: DIVLTQSPATLSVTPGDSVSLSCRASQSISNNLHWYQQKSHESPRLLIKYASQSISGIPSRFSGSGSGTDFTLSINSVETEDFGVYFCQQSNTWPYTFGGGTKLEIKRTVAAPSVFIFPPSDEQLKSGTASVVCLLNNFYPREAKVQWKVDNALQSGNSQESVTEQDSKDSTYSLSSTLTLSKADYEKHKVYACEVTHQGLSSPVTKSFNRGEC
notes: IgGsc format, Fc-attenuated
Molecule B1 had an EC50 of about 1 nM.

The record behind these values is EP3623383A1 (Deutsches Krebsforschungszentrum, Stiftung des öffentlichen …, dated 2020).
